Results on 13 molecules are retold here after patent US20090258375A1.

The target of data set [1] is recombinant bovine PAG-2 (fusion protein with the FLAG peptide) (bovine) (UniProt Q28057). The data set can be described thus: immuno-trap protease assay on crude insect cell lysate.
The target of data set [2] is recombinant bovine PAG-12 (fusion protein with the FLAG peptide) (bovine). Described as above.
Data set [3] concerns the target recombinant porcine PAG-2 (FLAG-tagged) (porcine) (UniProt Q29079). Described as above.
The target in data set [4] is recombinant bovine PAG-2 (fusion protein with the FLAG peptide) (bovine) (UniProt Q28057). The data set can be described thus: immuno-trap protease assay on crude insect cell lysate (second row).
For data set [5], the target named is recombinant bovine PAG-12 (fusion protein with the FLAG peptide) (bovine). The description is as above.
The target in data set [6] is recombinant porcine PAG-2 (FLAG-tagged) (porcine) (UniProt Q29079). The description is as above.
For data set [7], the target named is control insect cell lysate (sf9 cells infected with empty Baculovirus). The data set is described as follows: immuno-trap protease assay, control lysate.
The target of data set [8] is recombinant porcine PAG-2 (FLAG-tagged) (porcine) (UniProt Q29079). The data set is described as follows: immuno-trap protease assay, anti-FLAG with poPAG-2 lysate as positive control.
The target in data set [9] is recombinant equine-TSH-beta (equine) (UniProt Q28376). The data set can be described thus: immuno-trap protease assay, anti-FLAG with TSH-beta; TSH-beta has no proteolytic activity, so the reading is background and does not tell whether it was trapped.
In data set [10] the target is control insect cell lysate (sf9 cells infected with empty Baculovirus). The data set can be described thus: immuno-trap protease assay, control lysate (second row).
The target in data set [11] is bovine serum albumin (bovine) (UniProt P02769). The data set can be described thus: immuno-trap protease assay, 1 ug rabbit immunoglobulins coated, background control, 50 ng blank column.
UniProt P02769, sequence (P02769 25-607 limits assumed): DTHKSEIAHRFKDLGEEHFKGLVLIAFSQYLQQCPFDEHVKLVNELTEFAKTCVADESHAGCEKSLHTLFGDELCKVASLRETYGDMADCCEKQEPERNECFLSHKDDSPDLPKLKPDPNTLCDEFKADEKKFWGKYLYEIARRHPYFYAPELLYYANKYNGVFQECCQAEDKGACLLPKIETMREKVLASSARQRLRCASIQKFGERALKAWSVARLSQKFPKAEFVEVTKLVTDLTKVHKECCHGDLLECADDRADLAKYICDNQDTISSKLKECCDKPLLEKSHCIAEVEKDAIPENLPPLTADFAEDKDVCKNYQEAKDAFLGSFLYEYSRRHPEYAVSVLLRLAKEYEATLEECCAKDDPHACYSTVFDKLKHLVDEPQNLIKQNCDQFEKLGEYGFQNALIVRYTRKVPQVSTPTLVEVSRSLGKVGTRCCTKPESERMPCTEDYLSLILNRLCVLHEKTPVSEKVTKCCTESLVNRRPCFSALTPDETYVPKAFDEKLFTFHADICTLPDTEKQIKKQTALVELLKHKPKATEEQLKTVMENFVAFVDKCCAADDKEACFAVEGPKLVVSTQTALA
For data set [12], the system named is T1, fluorescent cathepsin D/E substrate MOCac-Gly-Lys-Pro-Ile-Leu-Phe-Phe-Arg-Leu-Lys(Dnp)-D-Arg-NH2.
T1 sequence: GKPILFFRLK

Data set [13] addresses T1, fluorescent cathepsin D/E substrate MOCac-Gly-Lys-Pro-Ile-Leu-Phe-Phe-Arg-Leu-Lys(Dnp)-D-Arg-NH2. The data set is described as follows: cell-based or functional assay.
Data set [14] deals with T2, fluorescent cathepsin D/E substrate MOCac-Gly-Lys-Pro-Ile-Leu-Phe-Phe-Arg-Leu-Lys(Dnp)-D-Arg-NH2.
T2 chain: GKPILFFRLK

Where two headings read alike, the source gives them in different places.

On to “anti-FLAG monoclonal antibody (M2; Sigma)”, for which the relative fluorescence of released product (relative fluorescence) in data set [1] was 27000; in [2] it was 42300; in data set [3], 96800; in data set [4] it was 26500; in data set [5], 23000; in data set [6], 92300. Further, the values for the relative fluorescence of released product (relative fluorescence) in [7] and in data set [10] were 4120 and 7760, respectively. Also, the values for the relative fluorescent product release (relative fluorescence) in [8] and in [9] were 97400 and 47000, respectively.

For the molecule “rabbit immunoglobulins (background control) (antibody)”, the relative fluorescence (counts) of released product in data set [11] was found to be 6040 counts.

In the case of “recombinant boPAG-6 (FLAG epitope tag fusion)”, in data set [12], the proteolytic activity result is “recombinant boPAG-6, -8, -9 and -10 have proteolytic activity with acidic pH optima”; the relative fluorescent product release, anti-FLAG immuno-trap protease assay, pH 3.0 (relative fluorescence) amounted to 84000; the relative fluorescent product release, anti-FLAG immuno-trap protease assay, pH 4.0 (relative fluorescence) is 77900; the relative fluorescent product release, anti-FLAG immuno-trap protease assay, pH 5.0 (relative fluorescence) worked out at 66300. In addition, in [12], the relative fluorescent product release, anti-FLAG immuno-trap protease assay, pH 6.0 (relative fluorescence) came to 31300 and the relative fluorescent product release, anti-FLAG immuno-trap protease assay, pH 7.0 (relative fluorescence) was determined as 24300.

In the case of “recombinant boPAG-8 (FLAG epitope tag fusion)”, in data set [12], the proteolytic activity result is “recombinant boPAG-6, -8, -9 and -10 have proteolytic activity with acidic pH optima”; the relative fluorescent product release, anti-FLAG immuno-trap protease assay, pH 3.0 (relative fluorescence) is 80600; the relative fluorescent product release, anti-FLAG immuno-trap protease assay, pH 4.0 (relative fluorescence) stood at 63600; the relative fluorescent product release, anti-FLAG immuno-trap protease assay, pH 5.0 (relative fluorescence) amounted to 56100. In data set [12], the relative fluorescent product release, anti-FLAG immuno-trap protease assay, pH 6.0 (relative fluorescence) was found to be 31900 and the relative fluorescent product release, anti-FLAG immuno-trap protease assay, pH 7.0 (relative fluorescence) is 26400.

Turning to “recombinant boPAG-9 (FLAG epitope tag fusion)”, in data set [12], the proteolytic activity result is “recombinant boPAG-6, -8, -9 and -10 have proteolytic activity with acidic pH optima”; the relative fluorescent product release, anti-FLAG immuno-trap protease assay, pH 3.0 (relative fluorescence) worked out at 72100; the relative fluorescent product release, anti-FLAG immuno-trap protease assay, pH 4.0 (relative fluorescence) worked out at 55000; the relative fluorescent product release, anti-FLAG immuno-trap protease assay, pH 5.0 (relative fluorescence) was found to be 48100. In data set [12], this molecule yielded a relative fluorescent product release, anti-FLAG immuno-trap protease assay, pH 6.0 (relative fluorescence) of 27800 and a relative fluorescent product release, anti-FLAG immuno-trap protease assay, pH 7.0 (relative fluorescence) of 24400.

On to “recombinant boPAG-10 (FLAG epitope tag fusion)”, for which, in [12], the proteolytic activity result was “recombinant boPAG-6, -8, -9 and -10 have proteolytic activity with acidic pH optima”; the relative fluorescent product release, anti-FLAG immuno-trap protease assay, pH 3.0 (relative fluorescence) turned out to be 52100; the relative fluorescent product release, anti-FLAG immuno-trap protease assay, pH 4.0 (relative fluorescence) came out at 42700; the relative fluorescent product release, anti-FLAG immuno-trap protease assay, pH 5.0 (relative fluorescence) came out at 38800. In data set [12], this molecule had a relative fluorescent product release, anti-FLAG immuno-trap protease assay, pH 6.0 (relative fluorescence) of 26500 and a relative fluorescent product release, anti-FLAG immuno-trap protease assay, pH 7.0 (relative fluorescence) of 23600.

For “recombinant boPAG-17 (FLAG epitope tag fusion)”, in data set [13], the relative fluorescent product release, anti-FLAG immuno-trap protease assay, pH 3.0 (relative fluorescence) amounted to 34600; the relative fluorescent product release, anti-FLAG immuno-trap protease assay, pH 4.0 (relative fluorescence) was found to be 28600; the relative fluorescent product release, anti-FLAG immuno-trap protease assay, pH 5.0 (relative fluorescence) was determined as 28500; the relative fluorescent product release, anti-FLAG immuno-trap protease assay, pH 6.0 (relative fluorescence) is 23300. In addition, the relative fluorescent product release, anti-FLAG immuno-trap protease assay, pH 7.0 (relative fluorescence) in data set [13] worked out at 23700.

As for “recombinant boPAG-19 (FLAG epitope tag fusion)”, in [13], the relative fluorescent product release, anti-FLAG immuno-trap protease assay, pH 3.0 (relative fluorescence) was determined as 40300; the relative fluorescent product release, anti-FLAG immuno-trap protease assay, pH 4.0 (relative fluorescence) was 32500; the relative fluorescent product release, anti-FLAG immuno-trap protease assay, pH 5.0 (relative fluorescence) is 32100; the relative fluorescent product release, anti-FLAG immuno-trap protease assay, pH 6.0 (relative fluorescence) came to 24300. In data set [13], the relative fluorescent product release, anti-FLAG immuno-trap protease assay, pH 7.0 (relative fluorescence) is 23300.

In the case of “recombinant boPAG-20 (FLAG epitope tag fusion)”, in [13], the relative fluorescent product release, anti-FLAG immuno-trap protease assay, pH 3.0 (relative fluorescence) was 38600; the relative fluorescent product release, anti-FLAG immuno-trap protease assay, pH 4.0 (relative fluorescence) came to 31300; the relative fluorescent product release, anti-FLAG immuno-trap protease assay, pH 5.0 (relative fluorescence) was 31400; the relative fluorescent product release, anti-FLAG immuno-trap protease assay, pH 6.0 (relative fluorescence) is 24500. Moreover, the relative fluorescent product release, anti-FLAG immuno-trap protease assay, pH 7.0 (relative fluorescence) in data set [13] came to 23800.

“recombinant bovine PAG-12 (fusion protein with the FLAG peptide)”: in [12], the “proteolytic activity (% relative activity)” value was “maximal activity for boPAG-12 and poPAG-2 was at pH 3.5”.

In data set [13], “recombinant equine-TSH-beta (from UniProt Q28376 21-138)” gave a relative fluorescent product release, anti-FLAG immuno-trap protease assay, pH 3.0 (negative control) (relative fluorescence) of 38300; a relative fluorescent product release, anti-FLAG immuno-trap protease assay, pH 4.0 (negative control) (relative fluorescence) of 33900; a relative fluorescent product release, anti-FLAG immuno-trap protease assay, pH 5.0 (negative control) (relative fluorescence) of 35000; a relative fluorescent product release, anti-FLAG immuno-trap protease assay, pH 6.0 (negative control) (relative fluorescence) of 28200. The relative fluorescent product release, anti-FLAG immuno-trap protease assay, pH 7.0 (negative control) (relative fluorescence) in data set [13] worked out at 26600.

B1: recombinant porcine PAG-2 (FLAG-tagged) (protein)
chain: DYKDDDDKLVMIPLTKVKSVRESLREKGLLKNFLKEHPYNMIQNLLSKNSSHVQKFSYQPLRNYLDMVYVGNISIGTPPQQFSVVFDTGSSDLWVPSIYCKSKACVTHRSFNPSHSSTFHDRGKSIKLEYGSGKMSGFLGQDTVRIGQLTSTGQAFGLSKEETGKAFEHAIFDGILGLAYPSIAIKGTTTVIDNLKKQDQISEPVFAFYLSSDKEEGSVVMFGGVDKKYYKGDLKWVPLTQTSYWQIALDRITCRGRVIGCPRGCQAIVDTGTSMLHGPSKAVAKIHSLIKHFEKEYVVPCNARKALPDIVFTINNVDYPVPAQAYIRKYVVPCNARKALPDIVFTINNVDYPVPAQAYIRKNANNNRCYSTFEDIMDTLNQREIWILGDVFLRLYFTVYDEGQNRIGLAQAT
With B1, the “proteolytic activity (% relative activity)” value in data set [14] is “maximal activity for boPAG-12 and poPAG-2 was at pH 3.5”.

B2: recombinant bovine PAG-2 (fusion protein with the FLAG peptide) (protein)
chain: DYKDDDDKIVILPLKKMKTLRETLREKNLLNNFLEEQAYRLSKNDSKITIHPLRNYLDTAYVGNITIGTPPQEFRVVFDTGSANLWVPCITCTSPACYTHKTFNPQNSSSFREVGSPITIFYGSGIIQGFLGSDTVRIGNLVSPEQSFGLSLEEYGFDSLPFDGILGLAFPAMGIEDTIPIFDNLWSHGAFSEPVFAFYLNTNKPEGSVVMFGGVDHRYYKGELNWIPVSQTSHWQISMNNISMNGTVTACSCGCEALLDTGTSMIYGPTKLVTNIHKLMNARLENSEYVVSCDAVKTLPPVIFNINGIDYPLRPQAYIIKIQNSCRSVFQGGTENSSLNTWILGDIFLRQYFSVFDRKNRRIGLAPAV
As to B2, the “proteolytic activity (% relative activity)” value in data set [14] was “Maximal activity for boPAG-2 was at pH 4”.
